Reference: US20090304686A1, “INTERFERING IN ACTIVATION OF AN IMMUNE CELL BY INFLUENCING INTERACTION OF LAIR AND COLLAGEN” (UNIVERSOTAIR MEDISCH CENTRUM UTRECHT, priority 2006, published 2009)

Key:
[1] = target: collagen I (purified, Sigma; acid-soluble human collagen type I in BIAcore) (human) (UniProt P02452); test: SPR (BIAcore), biphasic dissociation from collagen I, component Koff2
[2] = target: collagen I (purified, Sigma; acid-soluble human collagen type I in BIAcore) (human) (UniProt P02452); test: SPR (BIAcore), biphasic dissociation from collagen I, component Koff1
[3] = target: collagen I (purified, Sigma; acid-soluble human collagen type I in BIAcore) (human) (UniProt P02452); test: SPR (BIAcore), equilibrium binding to immobilised collagen I

koff [1]: 0.00187 s⁻¹
koff [2]: 0.000142 s⁻¹
Kd [3]: 14.2 nM
B1: hLAIR-1-IgG (extracellular domain of human LAIR-1 fused to the Fc region of human IgG1) (Fc fusion, UniProt Q6GTX8 22-165, looked up, not shown: a dimerising Fc or GST)
chain: QEEDLPRPSISAEPGTVIPLGSHVTFVCRGPVGVQTFRLERDSRSTYNDTEDVSQASPSESEARFRIDSVREGNAGLYRCIYYKPPKWSEQSDYLELLVKESSGGPDSPDTEPGSSAGPTQRPSDNSHNEHAPASQGLKAEHLY
